Consider three sequences from publication PMC3968096.

One data set addresses PDGF-A (human) (UniProt P04085). Nature of the data set: flow cytometry, yeast display. To be noted: 10 mM HEPES pH 7.9, 125 mM NaCl, 25 mM KCl, 1 mM MgCl2; F-EMSA at room temperature for 2 h, 5% PAGE at 4 C; flow cytometry in the same buffer. In general terms: In flow cytometry, cells or beads pass a laser one at a time.
In data set [1] the test system is T1, VEGF165 (soluble) (human), P15692-4.
T1 sequence: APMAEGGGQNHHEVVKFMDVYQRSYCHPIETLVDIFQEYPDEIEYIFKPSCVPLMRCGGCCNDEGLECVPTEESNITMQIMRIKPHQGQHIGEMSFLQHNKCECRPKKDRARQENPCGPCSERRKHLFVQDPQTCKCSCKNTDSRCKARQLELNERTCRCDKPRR
Nature of the data set: F-EMSA. To be noted: 1 mM Mg2+, 10 mM HEPES pH 7.9, 125 mM NaCl, 25 mM KCl, 1 mM MgCl2, F-EMSA at room temperature for 2 h, 5% PAGE at 4 C, flow cytometry in the same buffer. A general note: In EMSA bound probe runs differently from free probe, usually more slowly.

Take “CAGAGCAGGGCGCCGTGTCGCATAGTGTTGTCACTCCCCTGGAGGTCCATGCGAAATATG [hPAap1]”: in the data set with PDGF-A (human), the Kd is 4 µM.
The sequence “TAGCCCACTGCATAGAGGTAGCCACGTATGTGGGTGTTACCCATTCGTAGCTACCGGTGA [hVap1 full-length (100 nt)]” returned a Kd in data set [1] of 1.4 nM.
For “AAAGCCCACTGCATAGAGGCCGCTCAACATGCGAGCCGGT [hVap2_T2160]”, the Kd in data set [1] (same value is also printed for SL12) worked out at 107 nM.

By Kd is commonly meant the concentration at which binding is half-saturated. Low readings indicate a tighter complex, high ones a looser complex.
